Measured values: the supplement of paper PMC10126150
± gives the standard deviation of the averaged measurements.

tested on: ATP; assay: switch fluorescence ratio, 500 uM ATP over buffer (Cy3 cluster intensity, sum of 5 cycles each) (fold (ratio)); higher = stronger signal-on switching upon ATP binding; sequences stand for … in TCGTCGGCAGCGTCAGATGTGTATAAGAGACAGTTTTTTTTTTTTTTTTTTTTTTTTT…TC; settings: aptamer strand: ATP DNA aptamer (quencher-CACCTGGGGGAGTATTGCGGAGGAAGG + anchor), 100 nM annealed; ATP concentration: 500 uM
In short: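 Clusters with intensities outside 100-1000 RFU were excluded. The remaining Cy3-labelled switching-strand clusters on a modified Illumina MiSeq flow-cell had been annealed to 100 nM quencher-labelled ATP aptamer and imaged in selection buffer, then after 15 min with 500 uM ATP at 22 °C, for five cycles separated by NaOH stripping and re-annealing. The fluorescence ratio, averaged per switch-domain sequence, is each cluster's summed target-cycle Cy3 intensity over its summed buffer-cycle Cy3 intensity.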
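Further: ATP exposure 15 min at 22 °C before imaging.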

Sequence | switch fluorescence ratio
GAGGGTTGGC | 0.95 ± 0.084
GAGGGTTTGG | 0.989 ± 0.037
GAGGGTTTGT | 0.973 ± 0.039
GAGGTACCGC | 1.05 ± 0.029
GAGGTAGCGC | 0.98 ± 0.01
GAGGTATGGA | 0.9842 ± 0.0019
GAGGTATGTT | 0.999 ± 0.02
GAGGTCAAGG | 0.987 ± 0.033
GAGGTCATTC | 0.999 ± 0.029
GAGGTCGTAA | 1.05 ± 0.051
GAGGTGGCAG | 1.0097 ± 0.00096
GAGGTGTGGG | 0.981 ± 0.016
GAGGTGTTGC | 0.985 ± 0.035
GAGGTTAATA | 1.04 ± 0.021
GAGGTTATTA | 1 ± 0.066
GAGGTTGCTG | 0.987 ± 0.026
GAGGTTGTAC | 1.02 ± 0.012
GAGGTTTCAT | 0.997 ± 0.016
GAGTAAAACA | 1.16 ± 0.27
GAGTAAAGTT | 0.982 ± 0.02
GAGTAAGAGC | 1.017 ± 0.0075
GAGTAAGCGG | 1.01 ± 0.048
GAGTAAGGAC | 1.09 ± 0.061
GAGTAAGGTA | 1.02 ± 0.024
GAGTAAGTGG | 0.99 ± 0.039

Sequence | switch fluorescence ratio
GAGTAATCGG | 1.01 ± 0.049
GAGTACCCGG | 1 ± 0.018
GAGTAGAAGA | 1.01 ± 0.035
GAGTAGACGT | 0.998 ± 0.049
GAGTAGGGGT | 1.01 ± 0.022
GAGTATCTGC | 1.01 ± 0.079
GAGTATGCAT | 0.984 ± 0.023
GAGTATTCGG | 0.998 ± 0.031
GAGTATTGGG | 0.9897 ± 0.0087
GAGTATTGGT | 0.9817 ± 0.0094
GAGTATTTAA | 0.964 ± 0.058
GAGTCAAGGG | 0.998 ± 0.021
GAGTCAGGTA | 1.01 ± 0.029
GAGTCAGTGG | 0.984 ± 0.012
GAGTCCGCCT | 1.6 ± 0.093
GAGTCGAGGG | 0.961 ± 0.017
GAGTCGAGTG | 1.01 ± 0.048
GAGTCGGTGT | 1.026 ± 0.0063
GAGTCTAGCG | 1.02 ± 0.064
GAGTCTATTG | 1.023 ± 0.0022
GAGTCTGGGG | 0.978 ± 0.049
GAGTGAGCTT | 0.966 ± 0.046
GAGTGAGTAG | 0.9794 ± 0.0059
GAGTGCGGGA | 1.02 ± 0.044
GAGTGCTCGA | 1.01 ± 0.074

Sequence | switch fluorescence ratio
GAGTGGACGG | 0.998 ± 0.018
GAGTGGCACC | 1.04 ± 0.042
GAGTGGCTGG | 0.979 ± 0.014
GAGTGGGCTC | 0.9879 ± 0.0045
GAGTGGGGGA | 0.99 ± 0.023
GAGTGGGTGG | 0.99 ± 0.037
GAGTGGTACC | 1.01 ± 0.025
GAGTGGTGTG | 0.979 ± 0.035
GAGTGTGTGT | 1.006 ± 0.0053
GAGTGTTCAG | 0.997 ± 0.018
GAGTGTTGGG | 1.004 ± 0.0052
GAGTTAAGAC | 0.991 ± 0.049
GAGTTCCTGT | 1.01 ± 0.014
GAGTTGGGAG | 1.01 ± 0.032
GAGTTGGTAG | 0.969 ± 0.021
GAGTTGGTCT | 1 ± 0.027
GAGTTTAATT | 0.999 ± 0.038
GAGTTTAGGT | 1.02 ± 0.011
GAGTTTGAGT | 0.982 ± 0.035
GAGTTTGGGT | 0.985 ± 0.032
GAGTTTTCTA | 0.9987 ± 0.0081
GAGTTTTTTG | 1.03 ± 0.039
GATAAAAGCG | 0.994 ± 0.0015
GATAAATAAA | 1 ± 0.02
GATAAATGGG | 0.994 ± 0.024

Sequence | switch fluorescence ratio
GATAAATGTT | 0.985 ± 0.01
GATAAGATGG | 0.979 ± 0.034
GATAAGGAAG | 1.02 ± 0.011
GATACAGCTA | 1.03 ± 0.042
GATACAGTAA | 1.06 ± 0.017
GATACATGGG | 0.985 ± 0.038
GATACCGGGT | 1.01 ± 0.022
GATACCTTTG | 1.72 ± 1
GATACGGACA | 1.42 ± 0.019
GATACGTGGG | 0.9702 ± 0.0065
GATACTTTTT | 1.01 ± 0.029
GATAGAAGTA | 0.9733 ± 0.0057
GATAGACTTT | 1.02 ± 0.048
GATAGATGTT | 0.979 ± 0.02
GATAGGGCAT | 1.02 ± 0.012
GATAGGGGAA | 0.978 ± 0.022
GATAGGGGAC | 1.03 ± 0.039
GATAGGGGTT | 0.975 ± 0.022
GATAGGTG | 1.21 ± 0.1
GATAGTAAGT | 0.998 ± 0.077
GATAGTGATA | 1.01 ± 0.019
GATAGTTTGT | 1 ± 0.011
GATATAGGCG | 1.05 ± 0.047
GATATAGTGT | 0.991 ± 0.02
GATATATATG | 1.01 ± 0.015

Sequence | switch fluorescence ratio
GATATATGCT | 1 ± 0.013
GATATATTAT | 1.017 ± 0.0038
GATATATTTT | 0.976 ± 0.01
GATATCAGGG | 0.978 ± 0.037
GATATCCATG | 0.972 ± 0.014
GATATGGGGG | 1.01 ± 0.03
GATATTAGAT | 1.02 ± 0.046
GATATTATTT | 0.998 ± 0.024
GATATTGCGA | 1.02 ± 0.035
GATATTGTTA | 1 ± 0.029
GATATTTCGG | 1.011 ± 0.0024
GATATTTTAA | 0.992 ± 0.037
GATCAGTGGC | 1.05 ± 0.071
GATCATGCCT | 1.048 ± 0.008
GATCATTTGT | 0.9797 ± 0.0018
GATCCACGGT | 1.03 ± 0.027
GATCGACTGG | 1.029 ± 0.0075
GATCGAGGGG | 1.05 ± 0.1
GATCGCAGCG | 0.986 ± 0.032
GATCGCGTAT | 1.02 ± 0.0026
GATCGGGGAC | 1.03 ± 0.027
GATCGGGGGA | 1.02 ± 0.015
GATCGGTAAT | 1.04 ± 0.028
GATCTCAGGG | 1 ± 0.034
GATCTGCTTC | 1.02 ± 0.026

Sequence | switch fluorescence ratio
GATCTTCGGC | 0.9541 ± 0.0027
GATCTTTGTT | 1.009 ± 0.0093
GATCTTTTCG | 1.01 ± 0.037
GATGAAAAGT | 0.976 ± 0.015
GATGAAAGAT | 1.003 ± 0.0085
GATGAAGACT | 1 ± 0.067
GATGACCTTT | 1.07 ± 0.14
GATGACTTTT | 1 ± 0.023
GATGAGGTTC | 0.967 ± 0.053
GATGATGAGG | 0.9961 ± 0.0073
GATGATGGCG | 1.05 ± 0.073
GATGATGTTT | 0.973 ± 0.039
GATGATTCTG | 1.001 ± 0.0056
GATGCAGGGC | 1.12 ± 0.081
GATGCATGTT | 0.9947 ± 0.0021
GATGCCGGCA | 0.98 ± 0.065
GATGCGCCGG | 1.03 ± 0.034
GATGCGGGGA | 1.01 ± 0.018
GATGCGTACG | 1 ± 0.055
GATGCTATTT | 1.004 ± 0.0087
GATGGAACAC | 0.994 ± 0.017
GATGGAGGAG | 1.03 ± 0.027
GATGGAGGAT | 1.01 ± 0.021
GATGGAGGGA | 1.01 ± 0.028
GATGGAGGTT | 0.996 ± 0.055

Sequence | switch fluorescence ratio
GATGGATGAA | 1.016 ± 0.0033
GATGGGAGGT | 1.008 ± 0.0046
GATGGGATGG | 0.993 ± 0.039
GATGGGCCGG | 1 ± 0.039
GATGGGGAGT | 0.9715 ± 0.0057
GATGGGGGCA | 1 ± 0.086
GATGGGGGGT | 1 ± 0.022
GATGGGGGTG | 1.02 ± 0.053
GATGGGGTTC | 1.01 ± 0.018
GATGGGTATA | 1.0016 ± 0.00067
GATGGGTATG | 0.995 ± 0.01
GATGGGTG | 1.03 ± 0.082
GATGGTTAGA | 0.998 ± 0.036
GATGGTTGAA | 0.984 ± 0.021
GATGTAAAGC | 1.02 ± 0.06
GATGTAAAGG | 0.9891 ± 0.006
GATGTAACAA | 0.998 ± 0.035
GATGTAATGT | 1.0081 ± 0.00064
GATGTACAGA | 1.13 ± 0.019
GATGTAGGTA | 0.983 ± 0.038
GATGTATTAT | 1.008 ± 0.0043
GATGTATTTT | 0.9823 ± 0.004
GATGTCCACG | 0.9874 ± 0.0051
GATGTCGGTC | 0.9825 ± 0.0039
GATGTGAAAG | 0.9638 ± 0.003

Sequence | switch fluorescence ratio
GATGTGATTA | 0.982 ± 0.039
GATGTGCGTC | 1.01 ± 0.023
GATGTTAAAC | 1.06 ± 0.02
GATGTTCGAG | 0.991 ± 0.011
GATGTTGCCG | 1.05 ± 0.057
GATGTTGTGT | 0.9802 ± 0.0091
GATGTTGTTT | 1.03 ± 0.056
GATGTTTACT | 1.0047 ± 0.00016
GATGTTTATG | 0.975 ± 0.036
GATGTTTGTG | 0.992 ± 0.045
GATGTTTTGG | 0.986 ± 0.033
GATGTTTTTT | 1.07 ± 0.14
GATTAAAAGT | 0.969 ± 0.011
GATTAAACGG | 1.04 ± 0.04
GATTAAAGCT | 1.11 ± 0.039
GATTAAAGTT | 1.02 ± 0.033
GATTAAATGT | 0.992 ± 0.014
GATTAACCTA | 1.013 ± 0.003
GATTAAGAGG | 1.01 ± 0.039
GATTAAGGGC | 1.0033 ± 6.6e-05
GATTAATTAC | 1.06 ± 0.018
GATTACTCTG | 1.03 ± 0.026
GATTAGACAC | 1.013 ± 0.01
GATTAGCCGG | 0.99 ± 0.015
GATTATATAG | 0.957 ± 0.019
